Data as given in patent US5521157A, “Modified polypeptide compound with VIP-like activity” (Sanwa Kagaku Kenkyusho Co., Ltd., priority 1993, dated 1996).
Square brackets hold non-standard residues; d marks the D form. Ends that are not written are not given here. Peptide text beside a SMILES is read from it. hSer = N[C@@H](CCO)C(=O)O

Key:
[1] = tested on: histamine-induced bronchoconstriction; assay: Duration of bronchoconstriction suppressing activity (Konzett-Rossler method); format: in vivo; settings: male guinea pig, drug dropped directly into the respiratory tract, 5 μg/kg histamine intravenously
Method: (Duration of bronchoconstriction suppressing activity)
The inhibitory activity of the VIP analog derivatives, obtained in the Production Examples above, on histamine-induced bronchoconstriction was evaluated on test samples in accordance with a Konzett-Rossler method. Natural type VIP was used as a control.
First, a male guinea pig was fixed under urethane-anesthesia. After cutting the neck of the animal, a canula drug line was inserted into its jugular vein while a canula connected to a Konzett-Rossler device was inserted into its respiratory tract. After dropping a test drug directly into the respiratory tract, the head of the animal was held up for 1 minute to allow the drug to reach the lungs. Subsequently, 5 μg/kg of histamine was intravenously administered to the animal and the bronchoconstriction was measured over time. One minute before the administration of histamine, succinylcholine chloride was intravenously administered to the animal to thereby suppress spontaneous respiration during the experiment. Evaluation was made in the following manner. Before the administration of the test drug, the intensity of bronchoconstriction induced by histamine was measured. Then, after the administration of the test drug, the time required for reducing by 50% the suppression of bronchoconstriction induced by the same dose of histamine as measured above was defined as t50. The t50 of each test drug was determined.

[2] = Measurement of elution time in reversed phase HPLC (correlates to hydrophobicity); format: physicochemical; settings: reversed phase C-18 column, 40° C., 0.012N hydrochloric acid with 15, 25 and 50% acetonitrile, 50 minutes, 0.8 ml/min
Method: (Measurement of elution time in reversed phase HPLC)
It is well known that the elution time in HPLC with the use of a reversed phase column correlates to the hydrophobicity of a compound (cf. J. Med. Chem., vol. 18, pp. 549-552 (1975) and J. Pharm. Sci., vol. 66, pp. 747-749 (1977)). Thus, the elution time of each of the VIP analog derivatives obtained in the above Reference Production Example and production Examples was measured under the HPLC conditions as specified below. As a control, natural VIP having a human type amino acid sequence (purchased from Peptide Institute, INC.) was employed.
Column: μ-BONDASPHERE C-18 column (manufactured by Millipore Corporation, 3.9 mm×150 mm)
Eluent: eluted with 0.012N hydrochloric containing 15, 25 and 50% of acetonitrile in this order, for 50 minutes
Detection wavelength: 210 nm

in vitro = settings: male, Hartley, guinea pig, pH 7.8
Method: First, male Hartley guinea pigs (weight: 350-380 g) were anesthetized by intraperitoneally administering urethane. Next, the respiratory tract of each animal was exposed by cutting its neck and 4 ml of physiological saline was slowly injected into the respiratory tract. Then, the injected solution was recovered from the respiratory tract, which is referred to as the broncho-alveolar lavage wash.
1, 2, 3 and 4 hours after the initiation of the incubation, the reaction mixture was collected and the residual concentration of the (SEQ ID NO: 3)-n-hexylamide or the natural type VIP was measure under the following HPLC conditions to thereby determine the half-life thereof.
Column: μ-BONDASPHERE C-18 column (manufactured Waters Co., 3.9 mm×150 mm)
Eluent: eluted with 0.012N hydrochloric containing acetonitrile at a linear gradient concentration from 15 to 25%, for 20 min

enkephalinase = enkephalinase (Homo sapiens, UniProt P08473); settings: incubated with enkephalinase, within 15 minutes; cited from earlier work
[3] = broncho-alveolar lavage wash from guinea pig at 37° C.; cited from earlier work

enkephalinase, sequence (P08473 whole entry, species assumed): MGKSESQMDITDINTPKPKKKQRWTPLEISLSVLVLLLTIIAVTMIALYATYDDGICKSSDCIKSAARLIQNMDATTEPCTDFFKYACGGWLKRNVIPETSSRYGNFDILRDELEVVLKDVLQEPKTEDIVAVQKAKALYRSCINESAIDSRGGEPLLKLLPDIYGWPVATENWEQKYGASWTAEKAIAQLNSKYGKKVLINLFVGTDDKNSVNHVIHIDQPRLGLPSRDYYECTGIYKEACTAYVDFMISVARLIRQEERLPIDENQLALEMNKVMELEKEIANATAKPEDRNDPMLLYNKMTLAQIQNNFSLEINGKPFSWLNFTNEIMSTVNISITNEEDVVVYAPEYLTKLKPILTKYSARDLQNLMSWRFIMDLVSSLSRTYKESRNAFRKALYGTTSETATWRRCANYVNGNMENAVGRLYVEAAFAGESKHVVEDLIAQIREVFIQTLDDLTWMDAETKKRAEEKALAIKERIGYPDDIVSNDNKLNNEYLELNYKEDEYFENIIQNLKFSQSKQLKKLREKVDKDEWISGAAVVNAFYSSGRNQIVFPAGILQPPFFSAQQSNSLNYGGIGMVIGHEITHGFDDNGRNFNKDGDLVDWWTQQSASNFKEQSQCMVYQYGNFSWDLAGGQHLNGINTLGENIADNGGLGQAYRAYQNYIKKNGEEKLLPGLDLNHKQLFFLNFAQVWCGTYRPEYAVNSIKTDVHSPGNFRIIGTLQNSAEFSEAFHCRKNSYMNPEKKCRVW

Reference Production Example: basic VIP analog of SEQ ID NO: 3 disclosed in JP-A-6-220090 / EP-A-0,613,904, starting material of the derivatives (HSDAVFTGNYTKLRKQLAAKKYLNKALK[hSer]; ends and bridges not checked) [reference compound]
t50 [1]: 26 min
Retention time [2]: 13.8 min

VIP analog-n-propylamide derivative (HSDAVFTGNYTKLRKQLAAKKYLNKALK[hSer]-{n‑propylamide}) [Production Example 1]
Retention time [2]: 18.0 min

VIP analog-stearylamide derivative (HSDAVFTGNYTKLRKQLAAKKYLNKALK[hSer]-stearylamide) [Production Example 4]
Retention time [2]: 46.8 min

CCCCCCNC(=O)[C@H](CCO)NC(=O)[C@H](CCCCN)NC(=O)[C@H](CC(C)C)NC(=O)[C@H](C)NC(=O)[C@H](CCCCN)NC(=O)[C@H](CC(N)=O)NC(=O)[C@H](CC(C)C)NC(=O)[C@H](Cc1ccc(O)cc1)NC(=O)[C@H](CCCCN)NC(=O)[C@H](CCCCN)NC(=O)[C@H](C)NC(=O)[C@H](C)NC(=O)[C@H](CC(C)C)NC(=O)[C@H](CCC(N)=O)NC(=O)[C@H](CCCCN)NC(=O)[C@H](CCCNC(=N)N)NC(=O)[C@H](CC(C)C)NC(=O)[C@H](CCCCN)NC(=O)[C@@H](NC(=O)[C@H](Cc1ccc(O)cc1)NC(=O)[C@H](CC(N)=O)NC(=O)CNC(=O)[C@@H](NC(=O)[C@H](Cc1ccccc1)NC(=O)[C@@H](NC(=O)[C@H](C)NC(=O)[C@H](CC(=O)O)NC(=O)[C@H](CO)NC(=O)[C@@H](N)Cc1c[nH]cn1)C(C)C)[C@@H](C)O)[C@@H](C)O [Production Example 2, VIP analog-n-hexylamide derivative] (HELM PEPTIDE1{H.S.D.A.V.F.T.G.N.Y.T.K.L.R.K.Q.L.A.A.K.K.Y.L.N.K.A.L.K.[O=C([C@H](CCO)N[*:1])[*:2]].[CCCCCCN[*:1]]}$$$$V2.0)
half-life at 330 μg/ml (in vitro; broncho-alveolar lavage wash): 4.9 h

VIP analog-oleylamide derivative (HSDAVFTGNYTKLRKQLAAKKYLNKALK[hSer]-oleylamide) [Production Example 5]
Retention time [2]: 48.3 min

VIP analog-ethylenediaminemonoamide derivative (HSDAVFTGNYTKLRKQLAAKKYLNKALK[hSer]-{ethylenediamine monoamide}) [Production Example 8]
Retention time [2]: 12.1 min

VIP analog-laurylamide derivative (HSDAVFTGNYTKLRKQLAAKKYLNKALK[hSer]-laurylamide) [Production Example 3]
t50 [1]: 61 min
Retention time [2]: 40.0 min

VIP analog-dihexylamide derivative (HSDAVFTGNYTKLRKQLAAKKYLNKALK[hSer]-dihexylamide) [Production Example 6]
Retention time [2]: 41.4 min

VIP analog-triethylenetetraminemonoamide derivative (HSDAVFTGNYTKLRKQLAAKKYLNKALK[hSer]-{triethylenetetramine monoamide}) [Production Example 7]
t50 [1]: 58 min
Retention time [2]: 10.9 min

CC[C@H](C)[C@H](NC(=O)[C@H](CO)NC(=O)[C@H](CC(N)=O)NC(=O)[C@H](CC(C)C)NC(=O)[C@H](Cc1ccc(O)cc1)NC(=O)[C@H](CCCCN)NC(=O)[C@H](CCCCN)NC(=O)[C@@H](NC(=O)[C@H](C)NC(=O)[C@H](CCSC)NC(=O)[C@H](CCC(N)=O)NC(=O)[C@H](CCCCN)NC(=O)[C@H](CCCN=C(N)N)NC(=O)[C@H](CC(C)C)NC(=O)[C@H](CCCN=C(N)N)NC(=O)[C@@H](NC(=O)[C@H](Cc1ccc(O)cc1)NC(=O)[C@H](CC(N)=O)NC(=O)[C@H](CC(=O)O)NC(=O)[C@@H](NC(=O)[C@H](Cc1ccccc1)NC(=O)[C@@H](NC(=O)[C@H](C)NC(=O)[C@H](CC(=O)O)NC(=O)[C@H](CO)NC(=O)[C@@H](N)Cc1c[nH]cn1)C(C)C)[C@@H](C)O)[C@@H](C)O)C(C)C)C(=O)N[C@@H](CC(C)C)C(=O)N[C@@H](CC(N)=O)C(N)=O [VIP, vasoactive intestinal polypeptide]
VIP degraded (enkephalinase): more than 70%
half-life [3]: about 1.5 hours
half-life at 330 μg/ml (in vitro; cerebrospinal or other body fluid): 1.2 h
